# Assay results from patent EP3177737B1 (Arizona Board of Regents on behalf of the University of …, dated 2020).
# B1: Peptide 7: Ac-Nle-c[Asp-His-nal-Arg-(NMe)Trp-(NMe)Lys]-NH2 (peptide)
# peptide: LDHXRWK
# modifications: N-terminal acetyl; Nle at 4; D-Nal(2') (nal) at 7; Asp5-Lys10 side-chain lactam ring; C-terminal amide; backbone N-methyl on Trp9 and Lys10 (alpha-MSH numbering 4-10)
# B2: Peptide 11: Ac-Nle-c[Asp-His-nal-(NMe)Arg-(NMe)Trp-Lys]-NH2 (peptide)
# peptide: LDHXRWK
# modifications: N-terminal acetyl; Nle at 4; D-Nal(2') (nal) at 7; Asp5-Lys10 side-chain lactam ring; C-terminal amide; backbone N-methyl on Arg8 and Trp9 (alpha-MSH numbering 4-10)
# B3: Peptide 2: Ac-Nle-c[Asp-His-nal-Arg-Trp-(NMe)Lys]-NH2 (peptide)
# peptide: LDHXRWK
# modifications: N-terminal acetyl; Nle at 4; D-Nal(2') (nal) at 7; Asp5-Lys10 side-chain lactam ring; C-terminal amide; backbone N-methyl on Lys10 (alpha-MSH numbering 4-10)
# B4: Peptide 28: Ac-Nle-c[Asp-(NMe)His-nal-(NMe)Arg-(NMe)Trp-(NMe)Lys]-NH2 (peptide)
# peptide: LDHXRWK
# modifications: N-terminal acetyl; Nle at 4; D-Nal(2') (nal) at 7; Asp5-Lys10 side-chain lactam ring; C-terminal amide; backbone N-methyl on His6, Arg8, Trp9 and Lys10 (alpha-MSH numbering 4-10)
# B5: Peptide 14: Ac-Nle-c[Asp-His-(NMe)nal-(NMe)Arg-Trp-Lys]-NH2 (peptide)
# peptide: LDHXRWK
# modifications: N-terminal acetyl; Nle at 4; D-Nal(2') (nal) at 7; Asp5-Lys10 side-chain lactam ring; C-terminal amide; backbone N-methyl on nal7 and Arg8 (alpha-MSH numbering 4-10)
# B6: Peptide 16: Ac-Nle-c[Asp-(NMe)His-(NMe)nal-Arg-Trp-Lys]-NH2 (peptide)
# peptide: LDHXRWK
# modifications: N-terminal acetyl; Nle at 4; D-Nal(2') (nal) at 7; Asp5-Lys10 side-chain lactam ring; C-terminal amide; backbone N-methyl on His6 and nal7 (alpha-MSH numbering 4-10)
# B7: Peptide 3: Ac-Nle-c[Asp-His-nal-Arg-(NMe)Trp-Lys]-NH2 (peptide)
# peptide: LDHXRWK
# modifications: N-terminal acetyl; Nle at 4; D-Nal(2') (nal) at 7; Asp5-Lys10 side-chain lactam ring; C-terminal amide; backbone N-methyl on Trp9 (alpha-MSH numbering 4-10)
# B8: Peptide 15: Ac-Nle-c[Asp-(NMe)His-nal-(NMe)Arg-Trp-Lys]-NH2 (peptide)
# peptide: LDHXRWK
# modifications: N-terminal acetyl; Nle at 4; D-Nal(2') (nal) at 7; Asp5-Lys10 side-chain lactam ring; C-terminal amide; backbone N-methyl on His6 and Arg8 (alpha-MSH numbering 4-10)
# B9: Peptide 10: Ac-Nle-c[Asp-(NMe)His-nal-Arg-Trp-(NMe)Lys]-NH2 (peptide)
# peptide: LDHXRWK
# modifications: N-terminal acetyl; Nle at 4; D-Nal(2') (nal) at 7; Asp5-Lys10 side-chain lactam ring; C-terminal amide; backbone N-methyl on His6 and Lys10 (alpha-MSH numbering 4-10)
# B10: Peptide 8: Ac-Nle-c[Asp-His-nal-(NMe)Arg-Trp-(NMe)Lys]-NH2 (peptide)
# peptide: LDHXRWK
# modifications: N-terminal acetyl; Nle at 4; D-Nal(2') (nal) at 7; Asp5-Lys10 side-chain lactam ring; C-terminal amide; backbone N-methyl on Arg8 and Lys10 (alpha-MSH numbering 4-10)
# B11: Peptide 4: Ac-Nle-c[Asp-His-nal-(NMe)Arg-Trp-Lys]-NH2 (peptide)
# peptide: LDHXRWK
# modifications: N-terminal acetyl; Nle at 4; D-Nal(2') (nal) at 7; Asp5-Lys10 side-chain lactam ring; C-terminal amide; backbone N-methyl on Arg8 (alpha-MSH numbering 4-10)
# B12: Peptide 19: Ac-Nle-c[Asp-(NMe)His-nal-Arg-(NMe)Trp-(NMe)Lys]-NH2 (peptide)
# peptide: LDHXRWK
# modifications: N-terminal acetyl; Nle at 4; D-Nal(2') (nal) at 7; Asp5-Lys10 side-chain lactam ring; C-terminal amide; backbone N-methyl on His6, Trp9 and Lys10 (alpha-MSH numbering 4-10)
# B13: Peptide 6: Ac-Nle-c[Asp-(NMe)His-nal-Arg-Trp-Lys]-NH2 (peptide)
# peptide: LDHXRWK
# modifications: N-terminal acetyl; Nle at 4; D-Nal(2') (nal) at 7; Asp5-Lys10 side-chain lactam ring; C-terminal amide; backbone N-methyl on His6 (alpha-MSH numbering 4-10)
# B14: Peptide 32 (penta-N-methylated compound 32): Ac-Nle-c[Asp-(NMe)His-(NMe)nal-(NMe)Arg-(NMe)Trp-(NMe)Lys]-NH2 (peptide)
# peptide: LDHXRWK
# modifications: N-terminal acetyl; Nle at 4; D-Nal(2') (nal) at 7; Asp5-Lys10 side-chain lactam ring; C-terminal amide; backbone N-methyl on His6, nal7, Arg8, Trp9 and Lys10 (alpha-MSH numbering 4-10)
# notes: NO; 32; No. 32 to the hMC1R antagonist
# Biological target: T1, human melanocortin 5 receptor (human, UniProt P33032 1-325)
# T1 construct: whole, on cells; also called hMC5R; hMC5 receptor
# Assay: competition with [125I]-NDP-alpha-MSH on whole HEK293 cells expressing the receptor
# T1 sequence (P33032 whole entry): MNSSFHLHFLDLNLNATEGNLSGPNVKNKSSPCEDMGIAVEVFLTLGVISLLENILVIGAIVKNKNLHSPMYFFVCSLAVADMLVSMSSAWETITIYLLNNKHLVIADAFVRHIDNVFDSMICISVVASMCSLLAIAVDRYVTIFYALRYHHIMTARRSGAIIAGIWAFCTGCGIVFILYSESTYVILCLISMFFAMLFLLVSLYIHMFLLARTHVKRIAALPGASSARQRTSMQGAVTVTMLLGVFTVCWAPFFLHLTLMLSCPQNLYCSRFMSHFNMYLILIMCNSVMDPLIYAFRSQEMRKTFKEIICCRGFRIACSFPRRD
row,Binder,binding result
1,B1,binds
2,B2,binds
3,B3,binds
4,B4,binds
5,B5,binds
6,B6,binds
7,B7,binds
8,B8,binds
9,B9,binds
10,B10,binds
11,B11,binds
12,B12,binds
13,B13,binds

# Biological target: T2, human melanocortin 1 receptor (human, UniProt Q01726 1-317)
# T2 construct: whole, on cells; also called hMC1R; hMC1 receptor
# Assay: as above
# T2 sequence (Q01726 whole entry): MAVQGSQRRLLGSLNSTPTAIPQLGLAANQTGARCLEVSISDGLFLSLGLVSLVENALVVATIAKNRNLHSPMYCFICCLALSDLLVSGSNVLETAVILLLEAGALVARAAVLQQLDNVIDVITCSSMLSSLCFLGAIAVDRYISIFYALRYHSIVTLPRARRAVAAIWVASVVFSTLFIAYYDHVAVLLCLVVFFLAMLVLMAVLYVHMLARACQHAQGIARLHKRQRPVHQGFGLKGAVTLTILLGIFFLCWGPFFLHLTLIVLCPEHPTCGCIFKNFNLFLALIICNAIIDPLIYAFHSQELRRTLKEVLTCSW
row,Binder,IC50 [µM]
1,B14,0.068

# Biological target: T2, human melanocortin 1 receptor
# Assay: competition with [125I]-NDP-alpha-MSH on A375 human melanoma cells
row,Binder,IC50 [µM]
1,B8,0.0148

# Biological target: T3, human melanocortin 3 receptor (human, UniProt P41968 1-323)
# T3 construct: whole, on cells; also called hMC3R; hMC3 receptor
# Assay: assay not given; taken as the competition binding assay on HEK293 cells
# T3 sequence (P41968 whole entry): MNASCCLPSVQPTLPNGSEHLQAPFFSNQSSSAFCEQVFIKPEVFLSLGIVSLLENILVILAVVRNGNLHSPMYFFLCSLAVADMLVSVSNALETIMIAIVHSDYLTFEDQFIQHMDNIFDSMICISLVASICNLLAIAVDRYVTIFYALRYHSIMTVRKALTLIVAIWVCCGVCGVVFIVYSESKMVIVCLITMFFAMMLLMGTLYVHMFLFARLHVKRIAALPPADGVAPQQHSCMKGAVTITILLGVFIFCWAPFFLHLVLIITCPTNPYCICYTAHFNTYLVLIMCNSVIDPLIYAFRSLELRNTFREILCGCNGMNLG
row,Binder,binding affinity [nM]
1,B8,15
